The target of the assay is CXCR6 (Homo sapiens, UniProt O00574). The assay is described as follows: Arrestin agonist mode. Format: cell-based. As to conditions: read-out: RC50 (the source's name).
Chain of CXCR6 (O00574 whole entry): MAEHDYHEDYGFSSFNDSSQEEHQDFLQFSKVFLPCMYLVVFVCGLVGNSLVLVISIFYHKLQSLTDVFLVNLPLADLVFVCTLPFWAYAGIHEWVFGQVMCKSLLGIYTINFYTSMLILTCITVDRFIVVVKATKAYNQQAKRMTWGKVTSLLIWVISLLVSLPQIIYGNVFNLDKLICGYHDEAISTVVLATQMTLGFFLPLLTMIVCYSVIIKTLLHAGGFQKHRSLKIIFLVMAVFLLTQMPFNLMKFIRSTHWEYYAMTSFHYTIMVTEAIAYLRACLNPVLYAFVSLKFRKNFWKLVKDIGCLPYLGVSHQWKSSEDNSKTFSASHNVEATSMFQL

B1: CXCL16: control agonist (protein)
chain: NEGSVTGSCYCGKRISSDSPPSVQFMNRLRKHLRAYHRCLYYTRFQLLSWSVCGGNKDPWVQELMSCLDLKECGHAYSGIVAHQKHLLP
With B1, the EC50 came out at 6.81 nM.

For the origin of these results see patent US20260184748A1, “COMPOSITIONS COMPRISING OCTADECANEUROPEPTIDES (ODN) AND SYNTHETIC DERIVATIVES THEREOF AND METHODS OF USE FOR MODULATION OF FOOD INTAKE, OBESITY, BODY WEIGHT, NAUSEA, AND EMESIS” (The Trustees of the University of Pennsylvania, priority 2022, published 2026).
